Measurements: US20230002480A1

How the values were obtained:
Experiment in all cases: cell-based or functional assay
[1] = target: HIV-1 Env of pseudovirus BJOX015000.11.5 (HIV-1)
[2] = target: HIV-1 Env of pseudovirus 6240_08_TA5_4622 (HIV-1)
[3] = target: HIV-1 Env of pseudovirus Q259.d2.17 (HIV-1)
[4] = target: HIV-1 Env of pseudovirus CNE17 (HIV-1)
[5] = target: HIV-1 Env of pseudovirus CNE19 (HIV-1)
[6] = target: HIV-1 Env of pseudovirus RHPA4259.7 (HIV-1)
[7] = target: HIV-1 Env of pseudovirus SC422661.8 (HIV-1)
[8] = target: HIV-1 Env of pseudovirus BF1266.431a (HIV-1)
[9] = target: HIV-1 Env of pseudovirus BJOX009000.02.4 (HIV-1)
[10] = target: HIV-1 Env of pseudovirus 249M B10 (HIV-1)
[11] = target: HIV-1 Env of pseudovirus CNE30 (HIV-1)
[12] = target: HIV-1 Env of pseudovirus 231965.c01 (HIV-1)
[13] = target: HIV-1 Env of pseudovirus 211-9 (HIV-1)
[14] = target: HIV-1 Env of pseudovirus ZM109F.PB4 (HIV-1)
[15] = target: HIV-1 Env of pseudovirus HIV-16055-2.3 (HIV-1)
[16] = target: HIV-1 Env of pseudovirus 6041.v3.c23 (HIV-1)
[17] = target: HIV-1 Env of pseudovirus ZM53M.PB12 (HIV-1)
[18] = target: HIV-1 Env of pseudovirus 6480.v4.c25 (HIV-1)
[19] = target: HIV-1 Env of pseudovirus Du422.1 (HIV-1)
[20] = target: HIV-1 Env of pseudovirus 191955_A11 (HIV-1)
[21] = target: HIV-1 Env of pseudovirus P0402_c2_11 (HIV-1)
[22] = target: HIV-1 Env of pseudovirus X1632_S2_B10 (HIV-1)
[23] = target: HIV-1 Env of pseudovirus 62357_14_D3_4589 (HIV-1)
[24] = target: HIV-1 Env of pseudovirus 6545.v4.c1 (HIV-1)
[25] = target: HIV-1 Env of pseudovirus Du156.12 (HIV-1)
[26] = target: HIV-1 Env of pseudovirus 1006_11_C3_1601 (HIV-1)
[27] = target: HIV-1 Env of pseudovirus Q842.d12 (HIV-1)
[28] = target: HIV-1 Env of pseudovirus 3103.v3.c10 (HIV-1)
[29] = target: HIV-1 Env of pseudovirus 1012_11_TC21_3257 (HIV-1)
[30] = target: HIV-1 Env of pseudovirus R2184.c04 (HIV-1)
[31] = target: HIV-1 Env of pseudovirus 235-47 (HIV-1)
[32] = target: HIV-1 Env of pseudovirus C4118.c09 (HIV-1)
[33] = target: HIV-1 Env of pseudovirus Ce703010054_2A2 (HIV-1)
[34] = target: HIV-1 Env of pseudovirus 1394C9G1(Rev-) (HIV-1)
[35] = target: HIV-1 Env of pseudovirus CNE58 (HIV-1)
[36] = target: HIV-1 Env of pseudovirus X1254_c3 (HIV-1)
[37] = target: HIV-1 Env of pseudovirus CAP45.2.00.G3 (HIV-1)

Substance: 3BNC117 (antibody)
- IC50, titer in TZM.bl cells [1]: 0.05 µg/mL
- IC80, titer in TZM.bl cells [1]: 0.32 µg/mL
- neutralization IC50 [2]: 0.33 µg/mL
- neutralization IC80 [2]: 1.17 µg/mL
- neutralization IC50 [3]: 0.01 µg/mL
- neutralization IC80 [3]: 0.05 µg/mL
- neutralization IC50 [4]: 5.76 µg/mL
- neutralization IC80 [4]: 43 µg/mL
- neutralization IC50 [5]: 0.02 µg/mL
- neutralization IC80 [5]: 0.08 µg/mL
- neutralization IC50 [6]: < 0.09 µg/mL
- neutralization IC80 [6]: < 0.09 µg/mL
- neutralization IC50 [7]: 0.02 µg/mL
- neutralization IC80 [7]: 0.08 µg/mL
- neutralization IC50 [8]: 0.03 µg/mL
- neutralization IC80 [8]: 0.09 µg/mL
- IC50, titer in TZM.bl cells [9]: 0.4 µg/mL
- IC80, titer in TZM.bl cells [9]: 1.79 µg/mL
- neutralization IC50 [10]: 0.1 µg/mL
- neutralization IC80 [10]: 0.4 µg/mL
- neutralization IC50 [11]: 0.26 µg/mL
- neutralization IC80 [11]: 0.85 µg/mL
- IC50, titer in TZM.bl cells [12]: 0.05 µg/mL
- IC80, titer in TZM.bl cells [12]: 0.22 µg/mL
- IC50, titer in TZM.bl cells [13]: 0.35 µg/mL
- IC80, titer in TZM.bl cells [13]: 1.28 µg/mL
- neutralization IC50 [14]: 0.14 µg/mL
- neutralization IC80 [14]: 0.88 µg/mL
- neutralization IC50 [15]: 5.6 µg/mL
- neutralization IC80 [15]: > 50 µg/mL
- IC50, titer in TZM.bl cells [16]: 0.01 µg/mL
- IC80, titer in TZM.bl cells [16]: 0.07 µg/mL
- neutralization IC50 [17]: 0.21 µg/mL
- neutralization IC80 [17]: 0.85 µg/mL
- IC50, titer in TZM.bl cells [18]: 0.01 µg/mL
- IC80, titer in TZM.bl cells [18]: 0.04 µg/mL
- neutralization IC50 [19]: > 50 µg/mL
- neutralization IC80 [19]: > 50 µg/mL
- neutralization IC50 [20]: > 50 µg/mL
- neutralization IC80 [20]: > 50 µg/mL
- IC50, titer in TZM.bl cells [21]: 0.06 µg/mL
- IC80, titer in TZM.bl cells [21]: 0.38 µg/mL
- IC50, titer in TZM.bl cells [22]: 15.7 µg/mL
- IC80, titer in TZM.bl cells [22]: > 50 µg/mL
- neutralization IC50 [23]: 0.06 µg/mL
- neutralization IC80 [23]: 0.26 µg/mL
- IC50, titer in TZM.bl cells [24]: > 50 µg/mL
- IC80, titer in TZM.bl cells [24]: > 50 µg/mL
- neutralization IC50 [25]: 0.02 µg/mL
- neutralization IC80 [25]: 0.08 µg/mL
- neutralization IC50 [26]: 0.03 µg/mL
- neutralization IC80 [26]: 0.1 µg/mL
- neutralization IC50 [27]: < 0.01 µg/mL
- neutralization IC80 [27]: 0.01 µg/mL
- IC50, titer in TZM.bl cells [28]: 0.22 µg/mL
- IC80, titer in TZM.bl cells [28]: 0.85 µg/mL
- neutralization IC50 [29]: 0.02 µg/mL
- neutralization IC80 [29]: 0.07 µg/mL
- IC50, titer in TZM.bl cells [30]: 0.03 µg/mL
- IC80, titer in TZM.bl cells [30]: 0.1 µg/mL
- IC50, titer in TZM.bl cells [31]: 0.03 µg/mL
- IC80, titer in TZM.bl cells [31]: 0.12 µg/mL
- IC50, titer in TZM.bl cells [32]: 0.09 µg/mL
- IC80, titer in TZM.bl cells [32]: 0.52 µg/mL
- neutralization IC50 [33]: 0.37 µg/mL
- neutralization IC80 [33]: 1.67 µg/mL
- neutralization IC50 [34]: > 50 µg/mL
- neutralization IC80 [34]: > 50 µg/mL
- neutralization IC50 [35]: 0.25 µg/mL
- neutralization IC80 [35]: 2.03 µg/mL
- IC50, titer in TZM.bl cells [36]: 0.08 µg/mL
- IC80, titer in TZM.bl cells [36]: 0.27 µg/mL
- neutralization IC50 [37]: 3.88 µg/mL
- neutralization IC80 [37]: > 50 µg/mL

Substance: 8ANC195 (antibody)
- IC50, titer in TZM.bl cells [1]: 0.97 µg/mL
- IC80, titer in TZM.bl cells [1]: 4.3 µg/mL
- neutralization IC50 [2]: > 50 µg/mL
- neutralization IC80 [2]: > 50 µg/mL
- neutralization IC50 [3]: > 50 µg/mL
- neutralization IC80 [3]: > 50 µg/mL
- neutralization IC50 [4]: 2.59 µg/mL
- neutralization IC80 [4]: 11.1 µg/mL
- neutralization IC50 [5]: 0.29 µg/mL
- neutralization IC80 [5]: 1.73 µg/mL
- neutralization IC50 [6]: 0.34 µg/mL
- neutralization IC80 [6]: 1.56 µg/mL
- neutralization IC50 [7]: 0.29 µg/mL
- neutralization IC80 [7]: 4.67 µg/mL
- neutralization IC50 [8]: > 50 µg/mL
- neutralization IC80 [8]: > 50 µg/mL
- IC50, titer in TZM.bl cells [9]: 0.64 µg/mL
- IC80, titer in TZM.bl cells [9]: 3.09 µg/mL
- neutralization IC50 [10]: > 50 µg/mL
- neutralization IC80 [10]: > 50 µg/mL
- neutralization IC50 [11]: 7.52 µg/mL
- neutralization IC80 [11]: 40.5 µg/mL
- IC50, titer in TZM.bl cells [12]: 2.36 µg/mL
- IC80, titer in TZM.bl cells [12]: 2.36 µg/mL
- IC50, titer in TZM.bl cells [13]: 1.34 µg/mL
- IC80, titer in TZM.bl cells [13]: 8.43 µg/mL
- neutralization IC50 [14]: > 30 µg/mL
- neutralization IC80 [14]: > 30 µg/mL
- neutralization IC50 [15]: 15.3 µg/mL
- neutralization IC80 [15]: > 50 µg/mL
- IC50, titer in TZM.bl cells [16]: > 50 µg/mL
- IC80, titer in TZM.bl cells [16]: > 50 µg/mL
- neutralization IC50 [17]: > 30 µg/mL
- neutralization IC80 [17]: > 30 µg/mL
- IC50, titer in TZM.bl cells [18]: 0.16 µg/mL
- IC80, titer in TZM.bl cells [18]: 1.13 µg/mL
- neutralization IC50 [19]: > 50 µg/mL
- neutralization IC80 [19]: > 50 µg/mL
- neutralization IC50 [20]: > 50 µg/mL
- neutralization IC80 [20]: > 50 µg/mL
- IC50, titer in TZM.bl cells [21]: 0.62 µg/mL
- IC80, titer in TZM.bl cells [21]: 6.35 µg/mL
- IC50, titer in TZM.bl cells [22]: 0.47 µg/mL
- IC80, titer in TZM.bl cells [22]: 4.11 µg/mL
- neutralization IC50 [23]: > 50 µg/mL
- neutralization IC80 [23]: > 50 µg/mL
- IC50, titer in TZM.bl cells [24]: 26.9 µg/mL
- IC80, titer in TZM.bl cells [24]: > 50 µg/mL
- neutralization IC50 [25]: 0.22 µg/mL
- neutralization IC80 [25]: 1.56 µg/mL
- neutralization IC50 [26]: 0.43 µg/mL
- neutralization IC80 [26]: 1.98 µg/mL
- neutralization IC50 [27]: > 30 µg/mL
- neutralization IC80 [27]: > 30 µg/mL
- IC50, titer in TZM.bl cells [28]: 48.1 µg/mL
- IC80, titer in TZM.bl cells [28]: > 50 µg/mL
- neutralization IC50 [29]: > 50 µg/mL
- neutralization IC80 [29]: > 50 µg/mL
- IC50, titer in TZM.bl cells [30]: 0.09 µg/mL
- IC80, titer in TZM.bl cells [30]: 13 µg/mL
- IC50, titer in TZM.bl cells [31]: > 50 µg/mL
- IC80, titer in TZM.bl cells [31]: > 50 µg/mL
- IC50, titer in TZM.bl cells [32]: 0.2 µg/mL
- IC80, titer in TZM.bl cells [32]: 0.71 µg/mL
- neutralization IC50 [33]: 13.6 µg/mL
- neutralization IC80 [33]: > 50 µg/mL
- neutralization IC50 [34]: > 50 µg/mL
- neutralization IC80 [34]: > 50 µg/mL
- neutralization IC50 [35]: > 50 µg/mL
- neutralization IC80 [35]: > 50 µg/mL
- IC50, titer in TZM.bl cells [36]: 6.95 µg/mL
- IC80, titer in TZM.bl cells [36]: 6.95 µg/mL
- neutralization IC50 [37]: 28.3 µg/mL
- neutralization IC80 [37]: > 50 µg/mL
